In experiment [1] the target is T1, GST-MDM2 (human MDM2 residues 17-125) (human, UniProt Q00987 17-125).
T1 construct: range 17-125; No removal of GST is reported; not shown: glutathione S-transferase (GST) tag encoded by vector pGEX-6P-2
Put plainly: direct binding of the FITC-labeled peptide to MDM2.

Experiment [2] concerns the target T1, GST-MDM2 (human MDM2 residues 17-125). Kind of experiment: ratio of KD values of FITC-labeled peptides.
The target is the same in experiment [3]. Put plainly: direct binding of the FITC-labeled peptide to MDM2 (the text differs from Table 7).
Experiment [4] shares this target. Put plainly: fluorescence anisotropy competition with FITC-labeled peptide 1 for MDM2.
Experiment [5] shares this target. Put plainly: direct binding of the FITC-labeled peptide to MDM2. The source holds these as a separate data set.

Numbered stars: 1 amine (or outer) side, 2 acyl side, 3 side chain; on linkers, the order of the positions; unused ones are H or OH. Bridge positions count the residues as written; N and C are the ends. Square brackets hold non-standard residues; d marks the D form. Side chains are listed from the residue outwards. Ends that are not written are not given here. * marks the point of attachment. aminooxyacetyl = aminooxyacetyl (from Boc-aminooxyacetyl acylation of Lys side-chain amine), NOCC(=O)*; 2Nal = N[C@@H](Cc1ccc2ccccc2c1)C(=O)O; mXylylene = c1cc(C[*:1])cc(C[*:2])c1; CH2COCH2 = O=C(C[*:1])C[*:2]; hCys = N[C@@H](CCS)C(=O)O; AEEA = NCCOCCOCC(=O)O

B1: peptide 12, Ac-EETFCHYWCQLTS-miniPEG-K(FITC)-NH2, xylene-stapled (peptide)
peptide: Ac-EETFCHYWCQLTS-{AEEA-K(FITC)-NH2}
modifications: linker 5-9 via mXylylene
notes: No CPP
Regarding B1, binding in experiment [1] was put at a Kd of 187 nM.

B2: peptide 8, Ac-LTFhCHYWhCQLTS-miniPEG-K(FITC)-NH2, stapled (peptide)
peptide: Ac-LTF[hCys]HYW[hCys]QLTS-{AEEA-K(FITC)-NH2}
modifications: bridge 4-8; not fully specified (bridges)
notes: No CPP
As for B2, the “fold improvement of MDM2 binding affinity against peptide 1” value in experiment [2] came to 5 fold. Also, the Kd in experiment [1] worked out at 15 nM; in experiment [3], 14 nM.

B3: peptide 4 (DCA-stapled peptide 2 conjugated to CPP9 through an oxime, stereoisomer 1, unlabeled) (peptide)
peptide 1: LTF[hCys]HYW[hCys]QLTS
peptide 2: [dF][2Nal]R[dR]R[dR]Q([AEEA-Lys-aminooxyacetyl])
modifications: thioether (positions not given here) via CH2COCH2; not fully specified (bridges); also: oxime stereoisomer 1 (peak 1), Z/E not determined, further groups not given here, head-to-tail to a chain's N/C-terminus
notes: Peptides 4 and 5 are the two isomers separated by HPLC; also called 3-1-1-DCA-CP9 peak1
In turn, B3 displayed an IC50 in experiment [4] of 220 nM.

B4: peptide 3 (PDI with homocysteine at His-5 and Gln-9, stapled with DCA, FITC-labeled) (peptide)
peptide: LTFEXYWAXLTS
modifications: not fully specified; homocysteine at 5 and 9, joined by a 1,3-dichloroacetone (DCA) staple; FITC label; the rest of the structure only in drawing CHEM-US-00020
notes: X stands for homocysteine
Take B4: the Kd in experiment [5] was determined as 171 nM.

B5: peptide 13, Ac-EETFCHYWCQLTS-miniPEG-K(FITC)-NH2, stapled with BBA-CPP9 (peptide)
peptide 1: EETFCHYWCQLTS
peptide 2: FXRRRRQ
modifications: head-to-tail cyclic; D-Phe at 1, L-2-naphthylalanine at 2, D-Arg at 4 and 6; miniPEG-Lys linker, with the Lys side chain acylated by the BBA staple; N-terminal acetyl; Cys 5 and Cys 9 joined by a 3,5-dimethylbenzoyl (BBA) staple that carries CPP9; C-terminal miniPEG-Lys(FITC) amide
Consider B5, for which the Kd in experiment [1] is 365 nM.

B6: peptide 6, Ac-LTFCHYWCQLTS-miniPEG-K(FITC)-NH2, stapled (peptide)
peptide: Ac-LTFCHYWCQLTS-{AEEA-K(FITC)-NH2}
modifications: bridge 4-8; not fully specified (bridges); printed as Ac-LTFCHYWCQLTS-miniPEG-K(FITC)-NH
notes: No CPP
In the case of B6, the “fold decrease of MDM2-binding affinity against peptide 1” value in experiment [2] is roughly 2.5 fold. For the same molecule, in experiment [1], the Kd was 190 nM.

B7: peptide 10, Ac-ETFCHYWCQLTS-miniPEG-K(FITC)-NH2, xylene-stapled (peptide)
peptide: Ac-ETFCHYWCQLTS-{AEEA-K(FITC)-NH2}
modifications: linker 4-8 via mXylylene
notes: No CPP
On to B7, for which the “fold improvement of binding affinity against peptide 6” value in experiment [2] was 5 fold. Also, in experiment [1], the Kd came to 36 nM.

B8: peptide 5 (DCA-stapled peptide 2 conjugated to CPP9 through an oxime, stereoisomer 2, unlabeled) (peptide)
peptide 1: LTF[hCys]HYW[hCys]QLTS
peptide 2: [dF][2Nal]R[dR]R[dR]Q([AEEA-Lys-aminooxyacetyl])
modifications: thioether (positions not given here) via CH2COCH2; not fully specified (bridges); also: oxime stereoisomer 2 (peak 2), Z/E not determined, further groups not given here, head-to-tail to a chain's N/C-terminus
notes: also called 3-1-1-DCA-CP9 peak2
Take B8: in experiment [4], the IC50 came out at 201 nM. This lies in the sub-micromolar range.

B9: peptide 2 (PDI with homocysteine at Glu-4 and Ala-8, stapled with DCA, FITC-labeled) (peptide)
peptide: LTFXHYWXQLTS
modifications: not fully specified; homocysteine at 4 and 8, joined by a 1,3-dichloroacetone (DCA) staple; FITC label; the rest of the structure only in drawing CHEM-US-00019
notes: X stands for homocysteine; also called 3-1-1-DCA
With B9, in experiment [5], the affinity, expressed as Kd, was 144 nM.

B10: peptide 7, Ac-LTFCHYWCQLTS-miniPEG-K(FITC)-NH2, stapled with BBA-CPP9 (peptide)
peptide 1: LTFCHYWCQLTS
peptide 2: FXRRRRQ
modifications: head-to-tail cyclic; D-Phe at 1, L-2-naphthylalanine at 2, D-Arg at 4 and 6; miniPEG-Lys linker, with the Lys side chain acylated by the BBA staple; N-terminal acetyl; Cys 4 and Cys 8 joined by a 3,5-dimethylbenzoyl (BBA) staple that carries CPP9; C-terminal miniPEG-Lys(FITC) amide
For the molecule B10, the “fold decrease of MDM2 binding affinity against peptide 6” value in experiment [2] was roughly 2 fold. The molecule further registered a Kd in experiment [1] of roughly 300 nM.

B11: peptide 11, Ac-ETFCHYWCQLTS-miniPEG-K(FITC)-NH2, stapled with BBA-CPP9 (peptide)
peptide 1: ETFCHYWCQLTS
peptide 2: FXRRRRQ
modifications: head-to-tail cyclic; D-Phe at 1, L-2-naphthylalanine at 2, D-Arg at 4 and 6; miniPEG-Lys linker, with the Lys side chain acylated by the BBA staple; N-terminal acetyl; Cys 4 and Cys 8 joined by a 3,5-dimethylbenzoyl (BBA) staple that carries CPP9; C-terminal miniPEG-Lys(FITC) amide
Turning to B11, the “fold decrease of MDM2 binding affinity against peptide 10” value in experiment [2] is 6 fold. Besides, in experiment [1], the affinity, expressed as Kd, was 225 nM.

Values taken from patent US20230106131A1 (OHIO STATE INNOVATION FOUNDATION, published 2023).
